{
  "source": "the DeepSol protein solubility set",
  "data": [
    {"experiment": "soluble on expression in E. coli; label from the status in PepcDB or PDB records", "values": [
      {"sequence": "MKIQMKTPLVELDGDEMTRVLWPLIKDKLLLPFIDLQTEYYDLGIEERDRTNDQITIDAAEAIKKYGVGVKNATITPNQDRVEEYGLKEQWKSPNATVRAMLDGTVFRKPIMVKNIKPSVRSWQKPIVVGRHAYGDFYKNAEIFAEAGGKLEIVVTDKNGKETRQTIMEVDEPAIVQGIHNTVASIGHFARACFEYSLDQKIDCWFATKDTISKQYDQRFKIIFEEIFAQEYKEKFAAAGIEYFYTLIDDVVARMMKTEGGMLWACKNYDGDVMSDMVASAFGSLAMMSSVLVSPYGYFEYEAAHGTVQRHYYQHLKGERTSTNPVALIYAWTGALRKRGELDGTPDLCAFCDSLEAITIECIESGYMTGDLARICEPAAIKVLDSIEFIDELGKRLQQLNK", "soluble on expression in E. coli": "soluble"},
      {"sequence": "MKITHCKLKKKVQKELLRFFVLEVTARSAADILGIHPNSAVLFYRKIRMVISHYLALAANEVFEGSVELDESYFGGRRKGKRGRGAAGKVVVFGILKRNGRVYTVVVDNAKSDTLMPVIKQKIMPDSIVYTDSLSSYDKLDVSGFIHYRINHSKEFADRQNHINGIENFWNQAKRVLRK", "soluble on expression in E. coli": "not soluble"},
      {"sequence": "MKIVAVTACPTGIAHTYMAADALMKAAPKHNVQIKVETQGAMGIENQLTPHDIAQADRVLIVSDIEIEQPGRFEGTRKIQIPIEEVLLNVDKVFLVHCRD", "soluble on expression in E. coli": "soluble"},
      {"sequence": "MKIVTTVQEMQHITKELRASGKSIGFVPTMGYLHEGHATLLRKAREENEIVVLSVFVNPLQFGPNEDLDRYPRDIDRDENVAKENGVDYLFYPSVEEMYPAEQTTTVEVVKRTDVLCGKQRPGHFAGVATVLMKLFNITLPTRAYFGMKDAQQVAVIEGFVADFNIPVIIVPVDIVREEDGLAKSSRNVYLSQKERKEAPHLYRSLCMAKERIEAGERNAEIITTLVKEYIETYTKGTVDYADLYAYPSLQVVDQIEGRIILAIAVKFENVRLIDNITLTVK", "soluble on expression in E. coli": "not soluble"},
      {"sequence": "MKIYTRTGDAGETGLYGAERVVKAHPRVEAYGTVDEANSAIGLARSLLPGKHRDLHDLLERLQNALFDLGADLATRMGSPYEKNIARMDAEDVRALEEAIDRYQEESPPFQGFILPGGHPAAAALHLARTVVRRAERKAVALSREEPVNPEVIRYLNRLSDLLFVLARVVNAREGIKEEGWLVKKRR", "soluble on expression in E. coli": "soluble"},
      {"sequence": "MKKAKKEKKEKIIKPDGPINFNRSIMAAFEKQSRGKICPLCETKFSLASYKSHMNTCNVADDDEEIEVIATYTRDEAILMRAGPEIILGDASFSDKSENPTKRRKTDEREVPSEDDIVPEVPGPSGIVKNHEMPSESLDVTEISENIEKVIKKSPEWINHRRRSSRLLQNSQKDQADNANKEDPVKKETATISEVLQAIERFEQRVSGPEQTWPYYIKITIKIMKRVISTEKFDGTFYADDFWLPSDIITFYRFVELLSEGAKCLLVRLFIRKPAWYNLEKLEQKYPEIPNIKEAVSELAKGHFIDDDSSMKTLDEALQISDVVALKNVTKKFKLDGTKNRQELIQSLRKFAQSQQSIFGGTGNVEKSILKSLKQELGPCVRVRGGFVDLFKCLFTIYCPVTTNSANVIDNPSTTNVYQDLLYLMLSVANGTVQFPAPNPCPIIASFYKNRNMLQDYMISKSLEIAIVSQMSNGNLDAALDLAIDAKEFIEQMSDDDKRYYESLEIHERKFTSIWVFTRCCGHASSILERQKKYGMAVEWQKDLLITNKDIQSYCIDSRGIWWDRMLLNLDSHLKEKKECAKMIQIALQDPSILEKELLMIQDRALKLKEMPADFVTPINIGNPEKKTITANVITKSLGDGRINRFMIRDHETDDDVECSVEEVTRRHYLENEGFSTGVHDEGSTWHTLFGLFFYDVIFATDESVESTWLSELQDCPSDLSNTLYSKRKEKFEDRFVWLEEAEQELIEENIRKIWDLKHNETNRECSWKQFPMGAEDCVSFFQCIPRPALILILRRLAENYRNSRSGFPDLTLWNPETKRVAVVEVKGPGDRLSTKQRLWLAIFADSGIRAEVCHVAAQNSRLLV", "soluble on expression in E. coli": "not soluble"},
      {"sequence": "MKKDIFYCEQWSYGYKKLHKPFSEKQAEEKHLKGELYTAVIGSATQPEYVITLREEVGFFSVHFFDKFGRDYLTHQFQKYSNSNYYFLSMAVWRDYITLESHDLAEGYTYFFNENTDDCYVLKEDFINNERYEKTELYSQKDKVILFPKFGEYDLVLNPDII", "soluble on expression in E. coli": "not soluble"},
      {"sequence": "MKKFCLSYSSGKDCLLAMDRLVQAGNQPVALVTTLSDEINRSWFHGIPISVLEAAAEALDLPLVISHNNETNYTEKVVEALQETKKLGAETVCFGDIDIEQNGAWDRQVALSAGLEPQLPLWQENREALVKEFLAKGYTAIIKTVSKEAGIPIKFLGEPLNETFITYLKEHQLDICGENGEYHTLVIDGPLFKKRLNYYTSGIYESPYAYSLIIDA", "soluble on expression in E. coli": "not soluble"},
      {"sequence": "MKKIITLFGACALAFSMANADVNLYGPGGPHTALKDIANKYSEKTGVKVNVNFGPQATWFEKAKKDADILFGASDQSALAIASDFGKDFNVSKIKPLYFREAIILTQKGNPLKIKGLKDLANKKVRIVVPEGAGKSNTSGTGVWEDMIGRTQDIKTIQNFRNNIVAFVPNSGSARKLFAQDQADAWITWIDWSKSNPDIGTAVAIEKDLVVYRTFNVIAKEGASKETQDFIAYLSSKEAKEIFKKYGWREH", "soluble on expression in E. coli": "soluble"},
      {"sequence": "MKKINAIILLSSLTSASVFAGAYVENREAYNLASDQGEVMLRVGYNFDMGAGIMLTNTYNFQREDELKHGYNEIEGWYPLFKPTDKLTIQPGGLINDKSIGSGGAVYLDVNYKFVPWFNLTVRNRYNHNNYSSTDLSGELDNNDTYEIGTYWNFKITDKFSYTFEPHYFMRVNDFNSSNGKDHHWEITNTFRYRINEHWLPYFELRWLDRNVEPYHREQNQIRIGTKYFF", "soluble on expression in E. coli": "soluble"},
      {"sequence": "MKKPTSAPRSKAFGKQRRKTREELNQEARDRKRLKKHRGHAPGSRAAGGNSASGGGNQNQQKDPRIGSKTPVPLGVTEKVTQQHKPKSEKPMLSPQAELDLLETDERLDALLERLEAGETLSAEDQAWVDAKLDRIDELMQKLGLSYDDDEEDDEEDEKQEDMMRLLRGGN", "soluble on expression in E. coli": "not soluble"},
      {"sequence": "MKKQKLSGAEGFESYYLSIFGERWQSLKAALLEERKPEAYSENLIQNYYLDYASIQAARAMPVLEEGSCLDMCAAPGGKTLVLLSRIKENAEIQANELSADRRNRLIRVLDEHLSEETRKRIRVSSYDASRMPRYGQELYDRILLDAPCSSERHVLQNEKYLKQWTEARIKNLSQRQWALLSAAFLLLKPKGFLVYSTCALADEENDFLIEKLIKKYKEKVRLEEKLDGLGPISPEKTRYGFRFLPDKAEGAGPIYFSLIQKN", "soluble on expression in E. coli": "not soluble"},
      {"sequence": "MKKRFIYHDEKSNKFWWIDYEGDSLAVNYGKVGSIGKFQTKEFDNEEQCLKEASKLIAAKMKKGYQEDPKFNFMDRYYFDDEEIGLHVKTSHPNFQCHFTDPLYMCCWDEESPFGSDEGADALNVLENSLRKEPDLDCADFPQMLIETMWGMKYIAMDSILEEDVRAQLLVDEMSTIQSNMITYATAFGQIKVMGKISHKLKKMGLNALARHQLTAKILQWGDGQDSPILQKMIDDLTAFPHENLEHHHHHH", "soluble on expression in E. coli": "soluble"},
      {"sequence": "MKKSPKISLILEAFQNLEKAYVDLKKNLEIPKEEFVKNKLVQDRVRIDFNLAFESTMRVCRHLSAVYGVKTSSRDCLPKIAEHIGLPFADRLKKFSEFYFRYRDLKDTVSPEELYDFLKENLVLFKEFARGVVEYIKKTTGNYLLIDFDLLNEKAKFIKDSVKKIDFVLSQGEEEFKKTPMYYDRVKYFYQVAYDSLFDICKHLAPKFGIKKFGDDCLTKMVEKGVIPPEYYETVLKMTLLKNKLISTWEVSPEELYRSLKELNDKFIPVLREISKSLKLLLEKKAKEVGKEA", "soluble on expression in E. coli": "not soluble"},
      {"sequence": "MKKTIVFKCGGSVIRELSEEFYQNLKELRASGWKLAIVHGGGPEITNMLKRLNIKTEFSGGQRKTTKPVLEVAEMVLSGSVNKFFVAELAKHGLRAAGISGKDGGLLEADYLDPETYGEVGEIKKVDASMVNALMENGIIPVIAPLSMTSDCKTLNVNADLAASAVAGALEADKLMFVTDVDGIMKEKQRLDVLTPKEIQMLIKQEVITGGMIPKVNSALSALSDQVSEVMIVNGKGSFFAEQTFQGTKIVKAKEAVS", "soluble on expression in E. coli": "not soluble"},
      {"sequence": "MKKTKIVALSMMNSQTSGNPSRGTTKFESYTFDYWQYIDTLVYWGGSSGEGIIVTPSADVIDEAHSNGVPVLGTIFLPPKEYGGKVDWVKTMLKKDEQGQYPFASQMVKVAKTYGFEGWFINEETQGLNADDAANMKALIQQVKKEDSSLQIMWYDAMTKDGKVDWQNQLNDQNATFVQDKAADAMFLNFWWTQNNLADQKLLEKSNLYAKNHNIDPYNIYAGIDVQAKDVQTPVKWNLLEKGNQATQTSIGLYAASATYTNASNWDDFQNRESAFWVNQKADPRQVDHSVNESWTGLSKYVLEKSAISGNEFNTNFNLGNGYNYFKAGQKISEMDWNDRSLAGILPSYRWIIDNEGKNKISPSFDFANAYNGGNSLKFMAEHLDAGKSSNITLFASDLKIAMGAKFSVSMRSDQALKVSAILELANGQKVSIAGDKSLTENWSKLEHHHHHH", "soluble on expression in E. coli": "not soluble"},
      {"sequence": "MKKVALVTGAGQGIGKAIALRLVKDGFAVAIADYNDATAKAVASEINQAGGHAVAVKVDVSDRDQVFAAVEQARKTLGGFDVIVNNAGVAPSTPIESITPEIVDKVYNINVKGVIWGIQAAVEAFKKEGHGGKIINACSQAGHVGNPELAVYSSSKFAVRGLTQTAARDLAPLGITVNGYCPGIVKTPMWAEIDRQVSEAAGKPLGYGTAEFAKRITLGRLSEPEDVAACVSYLASPDSDYMTGQSLLIDGGMVFN", "soluble on expression in E. coli": "soluble"},
      {"sequence": "MKKVLIKGAMALLLSSYSMIVSAEDKTITLMLDWFVNPNHGPVVVAQQKGYFKEEGLNITIQEPADPSMPAKLVAANNIDLAISYQTSLTIDVAAGLPLIRSATLIATPLNTLMVLDNGKINSLADLKGKKIGIAIAGNEEATIGTMLKTENVNFSDVNIINVGWALSSSLASGKVDAIWGGLRNFETNQLALEGYKAKSFFPEEHGVPSYDELVFVANAKTYDADALKKFNHAIEKATQFIVNHPEESWKTFISYAPDTLNNELNKRAWNDTLTRFALRPSAVDLQRYDRFSDFMYRHQMIKTQPKAQNFVPVL", "soluble on expression in E. coli": "not soluble"},
      {"sequence": "MKKYEIIFKKLEEDILKGHYQMGDYLPPEMELSQTYASSRDTVRKALQLLTKAGFIKTVQGRGSQIIKRERINFPVSQLTSYQELVKQLQMNVKTNVIAIDKLIVDEKLTKLTGFENKGLVWRITRQRVIDGVASILDTDYLDKALIPHMTREIAEHSIYDYLENQLKLDIAYAQKIITIDQVSQKDKILLDLDSENHVVSVKSKVYLSNQQQFQFTESRHKLEKFRFVDFARRHRD", "soluble on expression in E. coli": "not soluble"},
      {"sequence": "MKKYSFPVTYENVRFPPNGQLKLPVMPAEPFYDAEKGEKKYKSTKRMIEARGVEEVHTELIHEQYGLAAVSGGFIDSDDFKFIQDRINKNLIDNQFSVWRVDAPWLPRTKKAQGTRLGGGKGSIQKYVTPVRANRIILEVGGHITEIEAKAFLLYLCERFSFPVEFVSETMLAERRKKAEEERAMNKNGFNWGKVIKYNMQNCNSWLSSYDVAWKGKYR", "soluble on expression in E. coli": "not soluble"},
      {"sequence": "MKLKIVFFGASLAGKSTTVRKLYEILKEKGLVKGEFMSIDTDEKRTLFVEMFLSKIPIDGQEIDFKILTTPGQFRLHPLRKAIMQGVDGLVFTVDSQTGREEINFLVLRETAHVLKDSTWIYTQYPSLFSTTREIFPTHFPLEHHHHHH", "soluble on expression in E. coli": "not soluble"}
    ]}
  ]
}
